In PMC10465942, “N-acetylmuramic acid recognition by MurK kinase from the MurNAc auxotrophic oral pathogen Tannerella forsythia” (The Journal of Biological Chemistry, 2023):

What was measured:
[1] = target: K1058, paralogous MurNAc kinase of Tannerella forsythia (Tannerella forsythia); assay: SEC; SD200 16/60 column, 4 °C; MurK in 200 mM NaCl, 50 mM MES, pH 6; K1058 in 750 mM NaCl, 25 mM Tris-HCl, pH 8.5; apparent mass about 60 kDa against 32.4 and 32.3 kDa for the monomers
[2] = target: Tannerella forsythia ATP-dependent murein sugar kinase (MurK) (Tannerella forsythia); assay: as above

K1058, paralogous MurNAc kinase of Tannerella forsythia (enzyme)
stoichiometry N [1]: 2

Tannerella forsythia ATP-dependent murein sugar kinase (MurK) (enzyme)
stoichiometry N [2]: 2
